Source: the nanobody polyreactivity screen of Harvey et al. (2022)

Assay: yeast display, Sf9 membrane polyspecificity reagent, FACS + sequencing; frameworks hold sequencing errors
In short: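 Nanobodies from a synthetic yeast display library (Saccharomyces cerevisiae BJ5465), induced 36–48 hours with galactose, were stained 1 hour at 4 °C with 10% biotinylated, detergent-solubilized Sf9 membrane reagent, enriched on streptavidin microbeads, then FACS-sorted. Anti-HA (expression) and streptavidin (reagent binding) fluorescence set low and high (top ~1%) gates. Polyreactivity labels come from the gate of origin. Genes were colony-PCR amplified, MiSeq 2 × 250 sequenced and filtered by CDR length.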

Sequence	polyreactivity (PSR sort gate)
QVQLVESGGGLVQAGGSLRLSCAASGLTFSDYTMGWYRQAPGKERELVAAISDSTGSTYYADSVKGRFTMSRDNAKNTVYLQMNSLKPEDTAVYNCIAYGYYHRLYSYTYGYWGQGTQVTVSS	low polyreactivity
QVQLVESGGGLVQAGGSLRLSCAASGRIFGAYAKGWYRQAPGTERELVAAISGSGGSTSYADSVKGRFTISRDNAKNTVYLQMNSLKPEDTAVYYCNAVSYVDIWDDRRYYYWVQGTQVTVSS	low polyreactivity
QVQLVESGAGLVQAGGSLRLSCAASGYIFRQYAMGRYRQAPGTEREFVAAISQTGGSTYYADSVKRRFTLSRDNAKNTVYFQMNSLKPVDTAVYYCAARYRGQRYRKLDYWGQGTQVTVSS	high polyreactivity
QVQLVESGGGIVQAGGSLRLSCAASGYIFKRYAMGWYRQAPWKERELVAAITGRGGSTYFADSVKGRFKISRDNAKNTVYLQMNSLKPEDTAVYYCAADGYVKGDYWGQGTQVTVSS	high polyreactivity
QVQLVESGGGLVQAGGSLRLSCAGSGSTILYYVMGWYRQAPGKARELVAAITGTGGRTYYADSVKGRFTISRDNAKNTVYLQMNSLKPEDTAVYYCAADGKFEYDYWGQGTQVTVSS	low polyreactivity
QVQLVESGGGLVQAGGSLRLSCAASGGIFDRYAMGWYRQAPGKERELVAAITGSGGRTYYADSVKGRFTISRDKAKNSVYLQMTSLKPVDPAVYYCARAFGQRRYDYWGHGTQVTVSS	high polyreactivity
QVQLVESGGGLVQAGGSLRLSCAASGRTLYLYAMGWYRQEPGKERELVAGITWSGGSTYYADSVKGRFTISRDNAKNTVYLQMNSLKPEDTAVYYCAAVSYPDYDYWGQGTQVTVSS	low polyreactivity
QVQLVESGGGLVQAGGSLRLSCAASGRISESNDMGWYRQAPGKERELVAAISSSGGSTYYADSVKGRFTISRDNAKNTVYLQMNSLKPEDTAVYYCAAQTGYSYGITWQFTKYNYWGQGTQVTVSS	low polyreactivity
QVQLVESGGGLVQAGGSLRLTCAASRLTFDDNAMGWYRQAPGKERELVAAISYNGGSTYYADSVKGRFTISRDNAKNTVYLQMNSLKPEDTAVYYCAADISVGRYGDMDYWGQGTQVTVSS	low polyreactivity
QDQLVESGGGLVQAGGSLRLSCAASGRTFYKYAMGWYRQAPGKERELVAAIRTGGGTSYADSVKGRFTISRDNAKNTVYLQMNSLKPEDTAVYYCNARGVYFWWRLDYWGQGTQVTVSS	low polyreactivity
QVQLVESGGGLVQAGGSLRLSCAASGSTFVVYAMGWYRQAPGKERELVARITLSDGSTNYADSVKGRFTISRDNAKNTVYLQMNSLKPEDTAVYYCAAEVVPFYYFWFDYWGQGTQVTVSS	low polyreactivity
QVQLVESGGGLVQAGGSLRLSCAASGITLLYYAMGWYRQAPGKERELVAAISRRGGSTYYADSVKGRFTISRDNAKNTVYLQMNSLKPEDTAVYYCAAYSPYGGYHYLYDYWGQGTQVTVSS	high polyreactivity
QFQLVESGGGLVQEGGSLRISCAASGSIFNEYAMGWYRQAPGKERELVAAISTSGDITYYADSVKGRFTISLDTAKNTVYLQMNSLKPEDTAVYYCAAKYSLLRQYNRLDYWGQGTQVTVSS	low polyreactivity
QVQLGESGGGLVQAGGSLRLSCAASGSTFVRYAMGWYRQAPGKERELVAGISYSGGRTYYADSVKGRFTISRDNAKNTVYLQMNSLKPEDTAVYYCAAEGTTSWWVKYGYWGQGTQVTVSS	low polyreactivity
QVQLVESGGGLVQAGGSLRLSCAASGSIFDYNAMGWYRQAPGKERELVAAITYSGGTTYADSVKGRFTISRDNAKNTVYLQMNSLKPEDTAVYYCNADVYRWSGSYTGWDSWHDYWGQGTQVTVSS	low polyreactivity
QVQLVESGGGIVQAGGSLRLSCAASGSTSGSYGMGWYRQAPGKERELVAAIRWSGGRTYYADSVKGRFTISRDKAKNTVYLQMNSLKPEDTAVYFCAKFRYTVSGYNYWGQRTQVTVSS	high polyreactivity
QVQLVESGGGLVQAGGSLRLSCAASGSTFAVYAMGWNRQAPGKERELVASITRGGSTYYADSVKGRFTISRDNAKYTVYLQMNSLKPEDTAVYYCADSITHYWYGYWGQGTQVTVSS	high polyreactivity
QVQLVESGGGLVQAGGSLRLSCAGSGSTFRYNAMGWYRQAPGKERELVAAISQRGGSTYYADSVKGRFTISRDNANNTVYLQMNSLKPEDTAVYYCPGDYWGQGTQVTVSS	high polyreactivity
QVQLVESGGGLVQAGGSLRLSCAASGGIFHYYAMGWYRQAPGKERELVAAISWNTGSTYYADSVKGRFTISRDNAKNTVYLQMNSLKPVDTAVYYCAASYRSPWLRYDYWGQGTQVTVSS	high polyreactivity
QDQLVESGGGLVQAGGSLRLSCAASGSIIPFYAMGWYRQAPGKERELVAAITYSGGSTFYADSVKGRFTISRDNAKNTVYLQMNSLKPEDTAVYYCNAVWRFGSSKYYYWGQGTQVTVSS	high polyreactivity
QVQLVESGGGLVHAGGSLRLSCAACGRIFGPYDMGWYRQAPGKEMELVAAISWSGGNTYYADSVKGRFTISLDNAKNTVYLQMNSLKPEDTAVYYCNADYYPSSYPYDYWGQGTQVTVSS	low polyreactivity
QVQLVESGGGLVQAGGSIRLSSAASGFTFYPYMGWYRQAPVKERELVATITWIGDDTYYADSVKGRFTISRDNAKNTVYLQMNSLKPEDTAVYYCNTDVDDTLYYSPMDYWGQGTQVTVSS	low polyreactivity

Sequence	polyreactivity (PSR sort gate)
QVQLVESGGVLLQGGGSLRLTWAASGGIFTDYTIRSYRQAPGKERELVADITWTGGSTYYPDSVKGRFTISRDNAKNTVYLQMNSLKPEDTAVYYCAADDYWVNLDYWGQGTQVTVSS	low polyreactivity
QVQLVESGGGLVQAGGSLRLTCAASGRIFGKYAKGRYRQAAGKEREFVATITRGGGTTSYADSVKGRFTNSRDNAMNTVYLQMNSLKPVDTAVYYCATRYFRGSYRNGDYWGQGTQVTVSS	high polyreactivity
QVQLVESGVGLVQAGVSLRLSCAASGIILTEYAMGCYRQAHGKERELVAAINRVGSTNYADSVKGRFTISRDNAKNTVYLQMNSLNPEDTAVYYCAAGTYYNDYDYWGQGTQVTVSS	low polyreactivity
QVQLVESGGGLVQAGGSLRLSCAASGSTLKRYAMGWYRQAPGKERELVARISRIGGSTFYADSVKGRFTISRDNAKNTVYLQMNSLNPEDTAVYYCAAVPLHYVYRADQAYYRYNYWGQGTQVTVSS	high polyreactivity
QVQLVESGGGLVQAGGSLRLSCAASGNTFPGYAMGWYRQAPGKEREFVATITSNDGTTYYADSVKGRFTISRDNAKNTVYLQMNSLKPEDTAVYYSAKRLSDSWPPNWGYNYWGQGTQVTVTS	low polyreactivity
QVQLVESGGGLVQAGGSLRLSCAASGTIFRLYTMGWYSQAPGKERELVAAITGSGDSTYYADSVKGRFTISRDNAKNTVYLQMNSLKPEDTAFYYFAAKLSRVKYGYWGQGTQVTVSS	high polyreactivity
QVQLVESGGGLVQAGGSLRLSCAAYGSTFQRYAMGWYRQAPGKERELVAAITLSGGNTYYADSVKGRFTISRDNAKNNVYLQMNSLKPEDTAVYYCAARRYRGYDYWGQGTQVTVSS	high polyreactivity
QVQLVESGGGLVQAGGSLRLSCAASGRIFQIYAMGWYRQAPGKERELVAAISGSTSYADSVKGRFTISRDNAKNTVYLQMNCLKPEDSAVYDCSALSLLPNGEYWGQGSQVTVSS	low polyreactivity
QVQLVESGGGLVQAGGSLRLSCAASGNNLSVYTMGWYRQAPGKERELVATITYSGDRTYADSVKGRFTISRDNAKNTVYLQMNSLKPEDTAVYYCAKRNFGSYIRRGHWGQGTQVTVSS	low polyreactivity
QVQLVESGGGLVQAGGSLRLSCAASGRIFAYYAMGWYRQAPGKERELVATIRSGGDTNYADSVKGRFTISRDNAKNTVYLQMNSLKPEDTAVYYCNALYDWWYPHEYNYWGQVTQVTVSS	low polyreactivity
QVQLVESGGGLVQAGGSLRLSCAASGSIFARYTMGWYRQAPGKERELVAAISSSGTSTYYADSVKGRFTISRDNAKNTVYLQMNSLKPEDTAVYYCAADWYYHYGYWGQGTQVTVSS	high polyreactivity
QVQLVESGGGLVQAGGSLRLSCAASGRNFHNYAMGWYRQATRKERELVAGISSRGGSTYYADSVKGRFTISRVNAKNTVYLQMNSLKPEVTAVYYCAKDKSPYGYATNQYRKYYYWGQGTQVTVSS	low polyreactivity
QVQLVESGGGLVQAGGSLRLSCAASGFTFGWYAMGWYRQAPGKERELVAAISWSGGSTYYADSVKGRFTISRDNAKKTVYLQMNSLKPEDTAVYYCAAYPAYGGDYWGQGTQVTVSS	high polyreactivity
QVQIVESVGGLVQAGGSLRLSCAASGSTVERYAMGWYRKAPGKERELVARITWSGGSTYYADSVKGRFTISLDNAKNTVYVQMNSLKPEDTAVYYCNRDTRYPGYWRVFAKNNYWGQGTQVTVSS	high polyreactivity
QVQLLETGRGLVQAGGSLRLSCASSGSIFFLYAMGWYRQAPGKERELVAAINWRTGRTYYADSVKWRFTISRDNAKNTVYFQMNSLKPEDTEVYYCAARSVPSPERGFYYWGQGTQVTVSS	high polyreactivity
QFQLLESGGGLVQAGSSLRLSCAASGSTFKYYTMGWYRQAPGKERELVATIRGAGTTYADSVKGRFTISRDNAKHTVYLQMNSLKPEDTAVYYCARLPRGDMDYWGQGTQVTVSS	low polyreactivity
QVQLVESGGGLVQAGGSLRLSCAASGRIFVRYVMGWYRQAPGKERELVAAITKSGASTYYADSVKGRFTISRDNAKNTVYLQMNSLKPEDTAVYYCNRDLVDSYGYWGQGTQVTVSS	high polyreactivity
QVQLEESRGGLVQAGGSLRLSCAASGSILTGYAMGLSRQAPGKERELVAAINFSGDNTYYADSVKGRFTISRDNAKNSVYLQMNSLKPEDTAVYYCNARNAVEDDYWGQGTQVTVSS	low polyreactivity
QVQLVESGGGLVQAGGSLRLSCAASGRIFKYYARGWYRQAPGKERELVAAISGSGGTHYADSVKGRFTISRDNAKNTVYLQMNSLKPEDTAVYYCAVRWRGNGQGGSWGQGTQVTVSS	high polyreactivity
QVQLVESGGGLVQAGGSLRLSCAASGIICDYNAMGWYRQAPGKERELVAAITSTDNTNYADSVKGRFTISRDNAKNTVYLQMNSLKPEDTAVYSCNTDYWLSVVYAMDYWGQGTQVTVSS	low polyreactivity
HVQLQESAGGLVQAGASLRLSCAPSGNISYSRNMGWYRQAPGKERELVAAIDRGAITYYADSVKGRFTISRDNEKNTVYLQIFSLKPEDTAVYYCAAVYHDRWDHRYWGQGTQVTVSS	high polyreactivity
